Experimental data from PMC9186069, “Borrelia miyamotoi FbpA and FbpB Are Immunomodulatory Outer Surface Lipoproteins With Distinct Structures and Functions” (Frontiers in Immunology, 2022).

T1: C1r zymogen (human, UniProt P00736 18-705)
T1 construct: also called zymogen form of full-length purified C1r; zymogen C1r; source: bought: Complement Technology, Inc. (purified)
T1 sequence: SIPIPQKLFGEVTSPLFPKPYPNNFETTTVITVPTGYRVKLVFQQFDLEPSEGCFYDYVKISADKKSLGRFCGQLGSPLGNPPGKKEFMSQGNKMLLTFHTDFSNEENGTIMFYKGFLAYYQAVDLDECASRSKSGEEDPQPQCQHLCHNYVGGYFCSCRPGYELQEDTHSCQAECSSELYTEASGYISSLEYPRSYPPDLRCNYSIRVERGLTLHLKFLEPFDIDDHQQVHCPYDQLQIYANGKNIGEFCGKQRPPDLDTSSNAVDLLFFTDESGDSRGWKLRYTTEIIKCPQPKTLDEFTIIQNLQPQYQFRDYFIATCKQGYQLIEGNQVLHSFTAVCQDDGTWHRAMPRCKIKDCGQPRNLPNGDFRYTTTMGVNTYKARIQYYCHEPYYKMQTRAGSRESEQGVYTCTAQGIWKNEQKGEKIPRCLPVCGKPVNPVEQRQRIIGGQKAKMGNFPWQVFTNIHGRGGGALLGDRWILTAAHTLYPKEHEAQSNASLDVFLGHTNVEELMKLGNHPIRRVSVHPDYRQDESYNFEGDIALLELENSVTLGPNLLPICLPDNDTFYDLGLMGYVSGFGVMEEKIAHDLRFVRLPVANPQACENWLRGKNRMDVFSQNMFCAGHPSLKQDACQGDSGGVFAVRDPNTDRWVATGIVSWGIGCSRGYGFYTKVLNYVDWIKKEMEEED

B1: FbpA-C (domain or fragment)
chain: GSTGSDNRYKSYLEGVRYNVSAAIGSIDKIYNNYKLFEEQRTKMYSTRLDTVTKDQAKKEAEKFTKEELEKDLKELLNYIQVSAKTATNFVYQKEQYAKQRLDKLETEVKTLISEVQGQSHPYEAYKAIVRSKFLQMKDSLEVVKGVIDRDGPWY
notes: Made from pT7HMT-FbpA-C; also called FbpA(222-371); C-terminal truncation construct of B. miyamotoi FbpA; source: E. coli BL21 (DE3), purified (Ni column, TEV, gel filtration)
B2: FbpB-C (domain or fragment)
chain: DNQYKFKLKNITDSVEQALKIAKQIKDDLDIIEFHRIKLSNHYGIRAEEHEKQTAREELSKFSKDKLEADLKKLLSEIEKSLNAATILITYNDYGGNLQSDLSAKTTLEALKTEVSSLITKIQDFNNKDHQAYPTSYYNDYQTYQALRNPYSKLTLVKDLLTRTGIVAR

What was measured:
Settings in all cases: both partners purified
C1r zymogen = target: T1, C1r zymogen; test: SPR; FbpA-C or FbpB-C immobilised by amine coupling; full-length C1r zymogen or active C1r injected, fivefold dilution series 0-100 nM, single cycle, final dissociation 1 hour; Biacore T200, 25°C; kinetic fits
active C1r = active C1r (human, UniProt P00736, activated two-chain form, cleaved between 463 and 464 (cleavage limits from UniProt chain features), heavy and light chains disulfide-linked; plasma-purified glycoprotein; native C1r forms a Ca-depend); test: as above
C1r-CCP2-SP = target: T2, C1r-CCP2-SP (human); test: SPR; FbpA-C, FbpB-C or FbpA DA-C immobilised by amine coupling; C1r-CCP2-SP injected, twofold dilution series 0-100 nM, multi-cycle; Biacore T200, 25°C, 30 μL/min; kinetic fits
T2 construct: source: recombinant (pT7HMT-C1r-CCP2-SP), purified by previously published protocols with a final gel filtration step
T2 sequence (A0A0U2RP97 entry or part of it): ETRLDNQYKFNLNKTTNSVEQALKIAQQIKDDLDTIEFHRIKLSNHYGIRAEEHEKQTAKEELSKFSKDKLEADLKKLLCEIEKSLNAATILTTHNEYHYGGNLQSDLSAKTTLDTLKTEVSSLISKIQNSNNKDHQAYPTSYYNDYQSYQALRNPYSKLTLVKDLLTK

Binder | Kd (C1r zymogen) | koff (C1r zymogen) | kon (C1r zymogen) | Kd (active C1r) | koff (active C1r) | kon (active C1r) | Kd (C1r-CCP2-SP) | koff (C1r-CCP2-SP) | kon (C1r-CCP2-SP)
B1 | 0.85 nM | 1.9e-05 s⁻¹ | 22000 M⁻¹ s⁻¹ | 0.39 nM | 2.7e-05 s⁻¹ | 68000 M⁻¹ s⁻¹ | – | – | –
B2 | – | – | – | 1.1 nM | 7.6e-05 s⁻¹ | 68000 M⁻¹ s⁻¹ | 1.4 nM | 0.00055 s⁻¹ | 390000 M⁻¹ s⁻¹
